# Data published in patent publication US20220227830A1, “QD DOSING OF GIP RECEPTOR AGONIST PEPTIDE COMPOUNDS AND USES THEREOF” (Takeda Pharmaceutical Company Limited, priority 2020, published 2022).
# Starred links: 1 amine or outer side, 2 acyl side, 3 side chain; linkers in the order of their positions; H or OH if unused. Non-standard residues stand in square brackets, D forms with d. Groups on a side chain read outwards from the residue. No end group written: not given here. *: point of attachment. G2E3 = linker of 2 Gly and 3 Glu (read GGEEE); C15 diacid = O=C(O)CCCCCCCCCCCCCC(=O)*; γGlu = O=C(O)[C@H](CCC(=O)[*:2])N[*:1]; NMeY = CN[C@@H](Cc1ccc(O)cc1)C(=O)O; AEEA = NCCOCCOCC(=O)O; Aib = CC(C)(N)C(=O)O
# T1: full-length human GIPR with an N-terminal FLAG tag, overexpressed on HEK-293T cells (human, UniProt P48546 22-466)
# T1 sequence (looked up): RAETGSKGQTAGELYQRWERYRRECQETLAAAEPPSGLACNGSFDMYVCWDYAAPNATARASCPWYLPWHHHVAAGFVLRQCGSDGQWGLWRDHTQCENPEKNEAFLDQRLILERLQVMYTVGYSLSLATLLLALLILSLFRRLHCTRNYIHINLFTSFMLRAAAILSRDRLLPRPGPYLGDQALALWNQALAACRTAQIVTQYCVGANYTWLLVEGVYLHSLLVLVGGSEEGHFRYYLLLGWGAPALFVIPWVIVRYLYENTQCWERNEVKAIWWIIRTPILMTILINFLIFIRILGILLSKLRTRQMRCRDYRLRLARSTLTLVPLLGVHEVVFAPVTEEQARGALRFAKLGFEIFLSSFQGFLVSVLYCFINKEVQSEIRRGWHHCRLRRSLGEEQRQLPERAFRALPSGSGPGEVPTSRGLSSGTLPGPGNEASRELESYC
# T2: full-length human GIPR with an N-terminal FLAG tag (human, UniProt P48546 22-466)
# T2 sequence (looked up): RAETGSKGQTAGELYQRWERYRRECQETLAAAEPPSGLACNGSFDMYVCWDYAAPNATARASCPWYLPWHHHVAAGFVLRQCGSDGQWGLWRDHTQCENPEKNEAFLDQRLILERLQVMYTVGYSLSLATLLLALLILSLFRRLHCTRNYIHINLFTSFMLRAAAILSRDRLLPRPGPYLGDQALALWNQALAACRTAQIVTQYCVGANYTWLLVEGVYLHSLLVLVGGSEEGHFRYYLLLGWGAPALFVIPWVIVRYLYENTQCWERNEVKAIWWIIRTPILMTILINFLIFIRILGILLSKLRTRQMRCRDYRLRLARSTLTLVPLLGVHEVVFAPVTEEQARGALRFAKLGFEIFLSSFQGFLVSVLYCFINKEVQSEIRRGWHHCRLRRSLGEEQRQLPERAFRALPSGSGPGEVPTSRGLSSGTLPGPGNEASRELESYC
# Experiments:
# Experiment in all cases: cell-based or functional assay
# [1] = target: T1, full-length human GIPR with an …
# [2] = target: T2, full-length human GIPR with an …
# [3] = target: full-length human GLP-1R with an N-terminal FLAG tag (human, UniProt P43220 24-463)
Binder,"Human GIPR cAMP, HEK293T EC50 [1]","Human GIPR cAMP, HEK293T EC50 [2]",Human GLP1R cAMP HEK293T EC50 [3]
Me-Y[Aib]EGTFISDYSI[Aib]LDR[Aib]AQ[Aib]K([2OEG-γGlu-γGlu-C15 diacid])FVNWLLAQRG-OH [Compound 207],0.4 pM,,
"Me-Y[Aib]EGTFISDYSI[Aib]LDR[Aib]AQ[Aib]KFVNWLLAQRG-OH (not fully specified (residues 1, 21)) [Compound 208]",0.3 pM,,
"Me-Y[Aib]EGTFISDYSIALDR[Aib]AQ[Aib]KFVNWLLAQKG-OH (not fully specified (residues 1, 21)) [Compound 214]",0.3 pM,,
[NMeY][Aib]EGTFISDYSIALDR[Aib]AQ[Aib]NFVNWLLAQK([G2E3-C15 diacid])PSSGAPPPS-OH [Compound 32],,0.2 pM,4730 pM
[NMeY][Aib]EGTFISDYSIALDR[Aib]AQ[Aib]NFVNWLLAK([AEEA-AEEA-γGlu-C15 diacid])K-OH (not fully specified) [Compound 34],,0.3 pM,117000 pM
"YXEGTFISDYSIALDKXHQXDFVNWLLAXK (not fully specified; Me-Tyr1; Aib 2,17,20; Km29 = Lys(2OEGgE-C15DA); position 21 printed 'O' in Table 3; C-term OH) [Compound 36]",,1 pM,25100 pM
[NMeY][Aib]EGTFISDYSIALDRK([AEEA-AEEA-γGlu-C15 diacid])HQ[Aib]NFVNWLLAQS-OH (also: Me-Tyr methyl position not given here) [Compound 37],,0.2 pM,43700 pM
[NMeY][Aib]EGTFISDYSIAK([AEEA-γGlu-γGlu-γGlu-C15 diacid])DR[Aib]AQ[Aib]NFVNWLL[Aib]QK-OH (not fully specified) [Compound 38],,0.2 pM,525000 pM
[NMeY][Aib]EGTFISDYSIAK([AEEA-γGlu-γGlu-γGlu-C15 diacid])DR[Aib]AQ[Aib]NFVNWLLA[Aib]K-OH (not fully specified) [Compound 39],,0.5 pM,398000 pM
[NMeY][Aib]EGTFISDYSIALDR[Aib]AQ[Aib]K([AEEA-γGlu-γGlu-γGlu-C15 diacid])FVNWLL[Aib]QK-OH (not fully specified) [Compound 40],,0.8 pM,115000 pM
"Y[Aib]EGTFISDYSIALDR[Aib]AQ[Aib]NFVNWLLAQK([G2E3-C15 diacid]) (not fully specified (residue 1, N-terminus); also: Me-Tyr methyl position not given here) [Compound 41]",,0.4 pM,112000 pM
[NMeY][Aib]EGTFISDYSIALDR[Aib]K([G2E3-C15 diacid])Q[Aib]NFVNWLLAQK-OH (not fully specified (N-terminus)) [Compound 42],,0.6 pM,237000 pM
"Y[Aib]EGTFISDYSIALDR[Aib]AQ[Aib]NFVNWLLAQK([AEEA-γGlu-γGlu-γGlu-C15 diacid]) (not fully specified (residue 1, N-terminus); also: Me-Tyr methyl position not given here) [Compound 43]",,0.3 pM,174000 pM
[NMeY][Aib]EGTFISDYSIALDR[Aib]K([AEEA-γGlu-γGlu-γGlu-C15 diacid])Q[Aib]NFVNWLLAQK (not fully specified (N-terminus)) [Compound 44],,0.4 pM,631000 pM
[NMeY][Aib]EGTFISDYSIALDR[Aib]AQ[Aib]K([AEEA-γGlu-γGlu-γGlu-C15 diacid])FVNWLLA[Aib]K-OH (not fully specified) [Compound 45],,0.3 pM,48400 pM
[NMeY][Aib]EGTFTSDYSIYK([AEEA-AEEA-γGlu-C15 diacid])DR[Aib]AQ[Aib]NFVNWLLAQRPSSGAPPPS-OH (not fully specified) [Compound 46],,0.2 pM,144 pM
[NMeY][Aib]EGTFISDYSIALDRK([AEEA-AEEA-γGlu-C15 diacid])HQ[Aib]NFVNWLLAQRPSSGAPPPS-OH (also: Me-Tyr methyl position not given here) [Compound 47],,0.3 pM,110000 pM
